Laboratory results taken from publication PMC10397247.
One block for each binder: values may come before it.

Key:
Experiment in all cases: two-hybrid library CCNG1;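 also: natural log of median RNA to DNA barcode read ratio; higher means stronger binding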
4H687-bA = biological target: T1, 4H687-bA
T1 chain: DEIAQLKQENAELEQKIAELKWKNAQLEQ

4H918-bA = biological target: T2, 4H918-bA
T2 chain: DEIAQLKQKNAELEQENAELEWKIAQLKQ

4H717-bA = biological target: T3, 4H717-bA
T3 chain: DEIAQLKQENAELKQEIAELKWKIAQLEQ

4H3185-bA = biological target: T4, 4H3185-bA
T4 chain: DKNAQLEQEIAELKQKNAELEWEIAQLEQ

4H3427-bA = biological target: T5, 4H3427-bA
T5 chain: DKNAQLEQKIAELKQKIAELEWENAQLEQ

4H3782-bA = biological target: T6, 4H3782-bA
T6 chain: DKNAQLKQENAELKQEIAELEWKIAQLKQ

4H3843-bA = biological target: T7, 4H3843-bA
T7 chain: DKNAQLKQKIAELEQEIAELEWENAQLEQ

4H607-bA = biological target: T8, 4H607-bA
T8 chain: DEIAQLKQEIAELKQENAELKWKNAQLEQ

4H338-bA = biological target: T9, 4H338-bA
T9 chain: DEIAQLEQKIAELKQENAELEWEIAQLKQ

4H908-bA = biological target: T10, 4H908-bA
T10 chain: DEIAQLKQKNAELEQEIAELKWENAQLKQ

4H3855-bA = biological target: T11, 4H3855-bA
T11 chain: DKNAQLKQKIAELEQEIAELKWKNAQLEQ

4H953-bA = biological target: T12, 4H953-bA
T12 chain: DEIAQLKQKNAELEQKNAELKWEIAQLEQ

4H331-bA = biological target: T13, 4H331-bA
T13 chain: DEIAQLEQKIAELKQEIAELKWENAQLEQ

4H967-bA = biological target: T14, 4H967-bA
T14 chain: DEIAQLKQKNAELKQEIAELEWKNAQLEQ

4H4001-bA = biological target: T15, 4H4001-bA
T15 chain: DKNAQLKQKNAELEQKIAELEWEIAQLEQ

4H3354-bA = biological target: T16, 4H3354-bA
T16 chain: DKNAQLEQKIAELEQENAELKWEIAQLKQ

4H72-bA = biological target: T17, 4H72-bA
T17 chain: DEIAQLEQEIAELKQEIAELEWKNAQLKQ

4H797-bA = biological target: T18, 4H797-bA
T18 chain: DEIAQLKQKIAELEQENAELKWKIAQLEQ

4H883-bA = biological target: T19, 4H883-bA
T19 chain: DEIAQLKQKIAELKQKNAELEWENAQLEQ

4H454-bA = biological target: T20, 4H454-bA
T20 chain: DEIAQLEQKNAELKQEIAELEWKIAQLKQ

4H754-bA = biological target: T21, 4H754-bA
T21 chain: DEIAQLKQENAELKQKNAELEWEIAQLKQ

P3A-bA = biological target: T22, P3A-bA
T22 chain: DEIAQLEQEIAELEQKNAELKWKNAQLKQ

4H568-bA = biological target: T23, 4H568-bA
T23 chain: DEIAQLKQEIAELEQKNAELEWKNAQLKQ

P5A-bA = biological target: T24, P5A-bA
T24 chain: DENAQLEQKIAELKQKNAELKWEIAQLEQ

P8A-bA = biological target: T25, P8A-bA
T25 chain: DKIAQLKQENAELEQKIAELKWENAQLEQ

P7A-bA = biological target: T26, P7A-bA
T26 chain: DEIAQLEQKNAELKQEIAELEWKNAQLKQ

P9A-bA = biological target: T27, P9A-bA
T27 chain: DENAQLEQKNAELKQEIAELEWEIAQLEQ

P6A-bA = biological target: T28, P6A-bA
T28 chain: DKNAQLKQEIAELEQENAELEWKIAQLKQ

P4A-bA = biological target: T29, P4A-bA
T29 chain: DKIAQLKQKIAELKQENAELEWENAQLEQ

P3A-bN = biological target: T30, P3A-bN
T30 chain: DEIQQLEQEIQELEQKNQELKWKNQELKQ

P9A-bN = biological target: T31, P9A-bN
T31 chain: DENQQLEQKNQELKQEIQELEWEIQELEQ

P8A-bN = biological target: T32, P8A-bN
T32 chain: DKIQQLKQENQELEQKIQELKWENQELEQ

P5A-bN = biological target: T33, P5A-bN
T33 chain: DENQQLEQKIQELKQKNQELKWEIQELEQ

P6A-bN = biological target: T34, P6A-bN
T34 chain: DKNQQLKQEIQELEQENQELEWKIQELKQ

P4A-bN = biological target: T35, P4A-bN
T35 chain: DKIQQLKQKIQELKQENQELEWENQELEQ

P7A-bN = biological target: T36, P7A-bN
T36 chain: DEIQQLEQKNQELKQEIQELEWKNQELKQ

P5SHb = biological target: T37, P5SHb
T37 chain: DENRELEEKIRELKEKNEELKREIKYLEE

P9SHb = biological target: T38, P9SHb
T38 chain: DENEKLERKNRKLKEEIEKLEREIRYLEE

P7SHb = biological target: T39, P7SHb
T39 chain: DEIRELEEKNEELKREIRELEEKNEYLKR

P8SHb = biological target: T40, P8SHb
T40 chain: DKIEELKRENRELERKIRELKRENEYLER

P6SHb = biological target: T41, P6SHb
T41 chain: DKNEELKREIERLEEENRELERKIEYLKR

P5A = biological target: T42, P5A
T42 chain: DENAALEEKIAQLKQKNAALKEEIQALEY

4H3974-bA = biological target: T43, 4H3974-bA
T43 chain: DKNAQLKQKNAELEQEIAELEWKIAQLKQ

4H1710-bA = biological target: T44, 4H1710-bA
T44 chain: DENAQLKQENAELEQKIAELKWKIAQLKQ

4H3628-bA = biological target: T45, 4H3628-bA
T45 chain: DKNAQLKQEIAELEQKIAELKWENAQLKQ

4H3817-bA = biological target: T46, 4H3817-bA
T46 chain: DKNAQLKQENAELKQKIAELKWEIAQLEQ

4H3497-bA = biological target: T47, 4H3497-bA
T47 chain: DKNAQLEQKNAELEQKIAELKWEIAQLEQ

4H3162-bA = biological target: T48, 4H3162-bA
T48 chain: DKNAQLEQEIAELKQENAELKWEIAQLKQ

4H1899-bA = biological target: T49, 4H1899-bA
T49 chain: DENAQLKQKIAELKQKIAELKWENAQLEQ

4H1544-bA = biological target: T50, 4H1544-bA
T50 chain: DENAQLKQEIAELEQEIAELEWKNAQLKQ

4H3613-bA = biological target: T51, 4H3613-bA
T51 chain: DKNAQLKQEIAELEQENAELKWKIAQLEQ

4H3298-bA = biological target: T52, 4H3298-bA
T52 chain: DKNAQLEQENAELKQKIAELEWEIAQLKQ

4H1985-bA = biological target: T53, 4H1985-bA
T53 chain: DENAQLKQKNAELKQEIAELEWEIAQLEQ

4H3926-bA = biological target: T54, 4H3926-bA
T54 chain: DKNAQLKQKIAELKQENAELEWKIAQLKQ

4H591-bA = biological target: T55, 4H591-bA
T55 chain: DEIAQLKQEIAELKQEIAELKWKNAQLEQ

4H626-bA = biological target: T56, 4H626-bA
T56 chain: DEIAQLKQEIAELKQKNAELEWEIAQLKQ

4H570-bA = biological target: T57, 4H570-bA
T57 chain: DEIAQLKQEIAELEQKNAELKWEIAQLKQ

4H3175-bA = biological target: T58, 4H3175-bA
T58 chain: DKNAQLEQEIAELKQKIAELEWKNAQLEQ

4H3277-bA = biological target: T59, 4H3277-bA
T59 chain: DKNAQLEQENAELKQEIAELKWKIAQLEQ

4H3858-bA = biological target: T60, 4H3858-bA
T60 chain: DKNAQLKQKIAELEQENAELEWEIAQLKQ

4H3462-bA = biological target: T61, 4H3462-bA
T61 chain: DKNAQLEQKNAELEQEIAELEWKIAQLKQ

4H850-bA = biological target: T62, 4H850-bA
T62 chain: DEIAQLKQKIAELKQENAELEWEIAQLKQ

4H906-bA = biological target: T63, 4H906-bA
T63 chain: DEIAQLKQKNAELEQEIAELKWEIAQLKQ

P4SHb = biological target: T64, P4SHb
T64 chain: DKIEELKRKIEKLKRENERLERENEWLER

interaction score (4H687-bA): -0.744
interaction score (4H918-bA): -1.76
interaction score (4H717-bA): -1.46
interaction score (4H3185-bA): -0.903
interaction score (4H3427-bA): -0.483
interaction score (4H3782-bA): -1.06
interaction score (4H3843-bA): -0.572
interaction score (4H607-bA): -1.07
interaction score (4H338-bA): -1.39
interaction score (4H908-bA): -1.86
interaction score (4H3855-bA): -0.974
interaction score (4H953-bA): -1.76
interaction score (4H331-bA): -1.49
interaction score (4H967-bA): -0.96
interaction score (4H4001-bA): -0.835
interaction score (4H3354-bA): -1.03
interaction score (4H72-bA): -1.82
interaction score (4H797-bA): -1.99
interaction score (4H883-bA): -1.49
interaction score (4H454-bA): -1.66
interaction score (4H754-bA): -0.86
interaction score (P3A-bA): -0.564
interaction score (4H568-bA): -1.72
Binder: DKNAQLEQEIAELKQKNAELEWEIAQLEQ [4H3185-bA]

interaction score (P5SHb): -0.373
interaction score (P9SHb): -0.0948
interaction score (P7SHb): -0.193
interaction score (P8SHb): 0.218
interaction score (P6SHb): 1.24
Binder: DENRELEEKIRELKEKNEELKREIKYLEE [P5SHb]

interaction score (P5SHb): -0.773
interaction score (P4SHb): -0.574
interaction score (P9SHb): 0.746
interaction score (P7SHb): -1.05
interaction score (P8SHb): -1.17
interaction score (P6SHb): 0.8
Binder: DKIEELKRKIEKLKRENERLERENEWLER [P4SHb]

Second part, the binder before the results:

Binder: DEIAQLEQEIAELEQKNAELKWKNAQLKQ [P3A-bA]
interaction score (P5A-bA): -0.684
interaction score (P8A-bA): 0.146
interaction score (P7A-bA): -1.05
interaction score (P9A-bA): 0.237
interaction score (P6A-bA): 1.19
interaction score (P3A-bA): -1.07
interaction score (P4A-bA): 2.18

Binder: DEIQQLEQENQELEQENQELEWEIQELEQ [P1A-bN]
interaction score (P3A-bN): -1.29
interaction score (P9A-bN): -2.46
interaction score (P8A-bN): -0.492
interaction score (P5A-bN): -0.827
interaction score (P6A-bN): -0.545
interaction score (P4A-bN): -0.418
interaction score (P7A-bN): -1.2

Binder: DEIAQLEQENAELEQENAELEWEIAQLEQ [P1A-bA]
interaction score (P5A-bA): -1.1
interaction score (P8A-bA): -0.805
interaction score (P7A-bA): -0.804
interaction score (P9A-bA): -1.21
interaction score (P6A-bA): -1.21
interaction score (P3A-bA): -1.12
interaction score (P4A-bA): -1.08

Binder: DKIAQLKQKNAELKQKNAELKWKIAQLKQ [P2A-bA]
interaction score (P5A-bA): -0.638
interaction score (P8A-bA): -0.64
interaction score (P7A-bA): -0.916
interaction score (P9A-bA): 0.702
interaction score (P6A-bA): 0.426
interaction score (P3A-bA): -0.686
interaction score (P4A-bA): 0.0163

Binder: DKIQQLKQKNQELKQKNQELKWKIQELKQ [P2A-bN]
interaction score (P3A-bN): -1.27
interaction score (P5A): -1.29
interaction score (P9A-bN): -0.223
interaction score (P8A-bN): -0.172
interaction score (P5A-bN): -0.834
interaction score (P6A-bN): -0.329
interaction score (P4A-bN): -0.0603
interaction score (P7A-bN): -2.31

Binder: DENAQLKQEIAELEQEIAELEWKNAQLKQ [4H1544-bA]
interaction score (4H3974-bA): 0.562
interaction score (4H1710-bA): 2.06
interaction score (4H3628-bA): 0.77
interaction score (4H3817-bA): 0.78
interaction score (4H3497-bA): 0.215
interaction score (4H3162-bA): 0.788
interaction score (4H1899-bA): 1.52
interaction score (4H1544-bA): 0.00288
interaction score (4H3613-bA): 0.572
interaction score (4H3298-bA): 0.792
interaction score (4H1985-bA): 0.274
interaction score (4H3926-bA): 0.0381
interaction score (4H591-bA): -0.632
interaction score (4H626-bA): -0.46
interaction score (4H570-bA): -0.0902
interaction score (4H3175-bA): -0.0402
interaction score (4H3277-bA): 0.243
interaction score (4H3858-bA): -0.357
interaction score (4H3462-bA): 0.455
interaction score (4H850-bA): 0.322
interaction score (4H906-bA): -0.806
